Measurements: US20180073026, “NOVEL EXPRESSION REGULATING RNA-MOLECULES AND USES THEREOF” (Universität Wien, published 2018)

Target: RNA polymerase (His6 RNAP; holoenzyme) (Escherichia coli, UniProt P0A7Z4;P0A8V2;P0A8T7;P0A800;P00579 …)
Test: in vitro transcription, reduction of rrnB termination vs Rev #5713, purified RNAP only
Settings: tags: His6 (Nudler Lab) or holoenzyme from Affymetrix; chain copies: 2,1,1,1,1
Description: Transcription reactions were performed in solution. Wild-type E. coli His6 RNAP (Evgeny Nudler Lab) and wild-type E. coli RNAP Holoenzyme (Affymetrix) were used in the assays. […] Then AUC RNA primer (Dharmacon) was added up to 10 μM together with GTP (25 μM) and ATP (25 μM) followed by incubation at 37° C. for 5 minutes. Next, [α-32P]-CTP (800 Ci/mmol, 2 μl, Hartmann Analytic) was added for another 2 min. To minimize RNA degradation 10 U of RNasin® Ribonuclease Inhibitor (Promega) were added to the reaction. For the reactions with Rho and NusG, the purified transcription factors were added in a concentration of up to 0.5 μM to the transcriptional mixtures where indicated, followed by additional incubation at 37° C. for 5 minutes. Chasing reaction was performed with all four NTPs added to a final concentration of 10-50 μM. To prevent re-initiation, rifampicin (Sigma) was added concurrently at this step to a final concentration of 10 μM. At the indicated time points, an aliquot of chase reaction was quenched with 3× Stop Solution, containing 100 mM EDTA, 8M UREA, 0.025% xylenthianol and 0.025% bromophenol blue. The products were separated by 6% denaturing TBE-PAGE (8M urea). […]

With GACAACAUGAGAACAGUUCAGCAGCACUA (ssRNA) [RAP #5713] the activity was greater than 2 fold.
